B1: Methanosarcina thermophila carbon monoxide dehydrogenase (MetCODH) α subunit (enzyme, UniProt A0A0E3ND19 1-803, looked up)
chain: MSKLTTGSFSIEDLESVQITINNIVGAAKEAAEKAEEELGPMGPTPFPTAATVRDWSFTLFDRYEPVYTPMCDQCCYCTFGPCNLEGNRRGACGLDMKGQAAREFFLRCITGCACHSAHGRHLLDHIISIFGEDMPINMGASNVIAPNIQLITGRQPKTLGDLKPIMEYVEEELGQLLATVHAGQEGAAIDYDNKAMLAGILDHVGMEVSDIAQVTALGFPKSDPEAPLVEVGMGTLDASKPVIIAIGHNVAGVTYIMDYMEDNNLTDKMEIGGLCCTAFDMTRYKREDRKPPYAKIVGTISKELKVVRSGIPDVIVIDEQCVRADLVEEGKKLKIPVIASNEKVMYGLPDRTNDDVDAIIEDIKTGKIPGCVMLDYEKLGELVPRLAMEMAPLREGISAIPSDEEMASLVAKCVACGECALACPEELDIPDAIQAAKEGDFTALDFLHDLCVGCRRCEQVCNKEIPILSVIDKAAQKAIAEEKGLVRAGRGQVSDAEIRAEGLNLVMGTTPGVIAIIGCANYPAGSKDVYRIAEEFLNRNYIVAVSGCSAMDIGMYKDADGKTLYERFPGRFERGNILNTGSCVSNSHISGTCHKVAAIFAGRNLSGNLAEIADYTLNRVGAVGLAWGAYSQKAAAIGTGCNMYGIPAVLGPHSGKYRRALIAKTYDENKWKVYDSRNGSELDIPPSPEFLITTAETWQEACVLLAKNCIRPSDNNMGRSIKLTHWIELSEKYLGVLPEDWWKFVRHEADLPLSRREELLKKLETEHGWEIDWKKKKIISGPKIKFDVSSQPTNLKRLCKEA
notes: α subunit of the CODH component of the acetyl-CoA decarbonylase/synthase (ACDS) complex, Methanosarcina thermophila strain TM-1; source: purified from M. thermophila strain TM-1 as part of the ACDS complex (Sepharose CL-6B); subcomplexes formed by dissociation on the cryo-EM grid

Assays:
[1] = biological target: the molecule itself; assay: cryo-EM structure; purified native ACDS complex, 4 mg/mL in 25 mM MOPS, 25 mM Na2SO4, pH 7.2; chameleon-plunged, dispense-to-plunge time 150 ms; on-grid dissociation gave CODH tetramer (2.8 Å), CODH/ACS pentamer and hexamer (3.2 Å each)
[2] = biological target: B1; assay: as above; settings: both partners purified

binding result [2]	Binder	binding result [1]
	B1	binds
binds	Methanosarcina thermophila acetyl-CoA synthase (MetACS) β subunit (enzyme, UniProt A0A0E3NEI1 1-472, looked up, β (ACS) subunit of the ACDS complex, Methanosarcina thermophila strain TM-1; native protein; the model building counts residues 1 to 472, of which 398 to 472 (C-terminal extension) had no EM density; A2 domain residues 4 to 151, A3 domain residues 186 to 397; Carries the Ni-Fe-S A-cluster, with density modelled as CO on the proximal nickel; The deposited coordinates hold only about residues 1-397 …) MSEFPFEISPMFEGERVRKEGMFVELGGPKSLGLELVRAKPMDEIEDGKVTIVGPDLKDMEEGKTYPWAMIFHVGGELVEPDLESVIERRVHDFINYCQGIMHLNQRYDVWMRISKDTAAKMDSFEPFGKAVMMLFKTELPFIEKMQVTFYTDQAEVEKQMAEAMEIFKARDARTKDLHDEDVDVFYGCTLCQSFAPTNVCVVSPDRVSLCGAINWFDGRAAAKVDPEGPQFAIEKGELLDAKTGEYSGVNEVAKKLSSGEFDKIKLHSFFDAPHTSCGCFEVVGFYIPEVDGIGWVNREYQGMAPNGLGFSTMAGQTGGGKQIVGFLGIGINYFYSPKFIQADGGWNRVVWLPSMLKEKIDEAIPDDMKDKIATEKDVTDIESLKTFLKEKNHPVVANWAAEAEEEEEEEEEEEEVAAEAAPMMMPAAGFQMPAMPAMPMMSGGAGGIKLTFKNAKITIDRMIISEKKEKK	

Source: article PMC11474084, “Capturing a methanogenic carbon monoxide dehydrogenase/acetyl-CoA synthase complex via cryogenic electron microscopy” (Proceedings of the National Academy of Sciences of the …, 2024)
